In assay [1] the target is T1, canine relaxin (mature relaxin in pregnant dog serum) (dog, UniProt Q9TRM8 154-177; Q9TRM8 26-60).
T1 construct: mature; Endogenous relaxin in serum, plasma or whole blood of pregnant dogs; also called dog relaxin
The experiment in a line: hybridoma screen against relaxin-positive dog serum.

Assay [2] addresses T1, canine relaxin (mature relaxin in …). The experiment in a line: hybridoma screen for activity against relaxin-positive pregnant dog serum. The protocol: Monoclonal IgG antibodies were prepared by immunizing mice with preprorelaxin (Bioraytec Ltd., Zhuhai, China) using standard laboratory methods known in the art. Anti-preprorelaxin antibody expressing hybridomas were derived by fusing myeloma cells with splenocytes from the immunized mice. The antibodies produced by hybridoma clonal cell lines were initially screened for activity against relaxin-positive pregnant dog serum. Relaxin positivity of the serum was confirmed using the FASTest RELAXIN in vitro test (Diagnostik Megacor, Hörbranz, Austria). The serum contains mature relaxin as preprorelaxin is not present in serum, and so the selected antibodies are reactive against relaxin and not only preprorelaxin.

From patent publication US20240377414A1 (BELLYLABS, published 2024) come the findings set out here.

T1 sequence (Q9TRM8 154-177 limits assumed, chain 1 of 2): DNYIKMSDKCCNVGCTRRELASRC
T1 sequence (Q9TRM8 26-60 limits assumed, chain 2 of 2): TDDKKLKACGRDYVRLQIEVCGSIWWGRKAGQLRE

B1: monoclonal antibody 9B8 (antibody, V domains shown)
VH: EVKLEESGGGLVQPGGSMKLSCAASGFTFSDAWMDWVRRSPEKGLEWIAEIRSKAKNHITYYAESVKGRFTISRDDSKSSVYLQMNSLRTEDSGIYYCTGGFAYWGQGTLVTVSA
VL: DAVMTQNPLSLPVSLGDQASISCRSSQSLEKSNGNTYLNWYLQKPGQSPQLLIYRVSNRFSGVPDRISGGGSGTDFTLKISRVEAEDLGVYFCVQVSHVPFTFGSGTKLEIK
notes: also called second detection antibody; hybridoma CCTCC C2021211
In the case of B1, the binding result in assay [1] is on record as “binds”.

B2: monoclonal antibody 2A4 (antibody, V domains shown)
VH: AVNLEESGGGLVLPGGSMKLSCTASGFTFSDAWMDWVRRSPEKGLEWLAEIRDETNNHITYYAESVKVRFIISRDDSKSSVYLQMNNLRPEDTGIYYCAAGFAYWGQGTLVTVSA
VL: DAVMTQTPLSLSVSLGDQASISCRSSQSLEKSNGKTYLNWYLQKPGQSPQLLIYRVSNRFSGVLDRFSGSGSGTDFTLKISRVEAEDLGLYFCLQVSHVPFTFGSGTKLEIK
notes: also called first detection antibody; hybridoma CCTCC C2021210
Turning to B2, the binding result in assay [1] was “binds”.

B3: monoclonal antibody 2H7 (antibody, V domains shown)
VH: DVQLQESGPDLVKPSQSLSLTCTVTGYSITSGYSWHWIRQFPGNKLEWMGYIHYSGRTNYNPSLKSRISITRDTSKNQFFLQLNSVTTEDTATYYCARSMDYWGQGTSVSVSS
VL: DIKMTQSPSSMYASLGERVTITCKASQDIKTYLNWYQQKPWKSPKTLIYYATSLADGVPSRFSGSGSGQDFSLTISSLESDDTATYFCLQHGESPPTFGGGTKLEIK
notes: Mouse monoclonal IgG from hybridoma; Mostly used as capture antibody on the test line; gold-labelled as detection antibody in the pair 2F10-2H7; also called capture antibody; hybridoma CCTCC C2021209
For the molecule B3, the binding result in assay [2] is recorded as “binds”.
